Laboratory results as given in US20240252689A1, “POLY-ADP RIBOSE (PAR) TRACKER OPTIMIZED SPLIT-PROTEIN REASSEMBLY PAR DETECTION REAGENTS” (THE BOARD OF REGENTS OF THE UNIVERSITY OF TEXAS SYSTEM, priority 2021, published 2024).

Assays:
PARylated PARP-1 = PARylated PARP-1 (Homo sapiens, UniProt P09874); test: In vitro ADP-ribosylation assay with ARBD-ddGFP pairs, recombinant PARP-1; assay type: biochemical; conditions: ARBD fused to ddGFP-A/B, recombinant proteins
Text: Dimerization-dependent GFP is a genetically encoded sensor that was initially developed to study protein interactions. In this system, a pair of a quenched GFP (ddGFPA) and a non-fluorogenic GFP (ddGFPB) form a heterodimer that can result in improved fluorescence. In this example, a ddGFP-based fluorescence sensor (fluorescent PAR-Trackers or PAR-T) was designed to allow for live cell imaging, with high signal-noise ratio. To achieve this, the various ADPR reader domains (ARBDs) were fused to ddGFP-A/B and purified as recombinant proteins (FIG. 1A, FIG. 1B, FIG. 6A). In vitro ADP-ribosylation assays were performed using recombinant PARP-1 (to detect PAR) and PARP-3 (to detect MAR) specifically (FIG. 6B and FIG. 6C). […] These reagents recognized PARylated-PARP-1 but not MARylated PARP-3, or the precursors of ADPR (FIG. 1C). Accordingly, the utility of these reagents was further tested in in vitro PARP-1 PARylation reactions with increasing concentrations of NAD+(FIGS. 6F and 6G) and increasing time of reaction (FIG. 1D and FIG. 1E). Similarly, degradation of PAR chains by ARH3 was detected in a time (FIG. 1F and FIG. 1G) and dose (FIG. 6H) dependent way. Further, in vitro reactions were performed by incubating the recombinant PAR-T sensors and lysates from Hela cells treated with H2O2 to induce DNA damage and activate PARP-1.

PARP-1 activation = test: Live cell imaging with ddGFP PAR-T after H2O2-mediated PARP-1 activation; assay type: cell-based; conditions: cells treated with H2O2, compared to ddGFP alone
Method: Cells were treated with various inhibitors as described herein. For inhibition of nuclear PARPs, cells were treated with PJ-34 ([…]; Enzo, ALX-270) or Olaparib (20 µM; MedChem Express, HY-10162) for 2 hours. For inhibition of PARG, cells were treated with PDD 00017273 (20 µM; MedChem Express, HY-108360) for 2 hours. For UV-induced DNA damage, the cells were harvested 15 minutes after treatment with 50 mJ/cm2 UV irradiation.
Having confirmed the specificity of the PAR-T sensors, their utility in live cell imaging was then tested. PAR-T sensors were expressed in Hela cells in a doxycycline-dependent manner and live cell imaging performed after subjecting the cells to H2O2-mediated PARP-1 activation (FIG. 7A). This PAR-T construct also expresses mCherry with nuclear localization signal (NLS) to illuminate the nuclei and act as a control for variability in expression of the constructs (FIG. 7A). […] Using the WWE-based ddGFP PAR-T construct, accumulation of PAR after H2O2-treatment was detected in real time.
Next, a set of assays was performed to compare the performance of the PAR-T sensors to conventional PAR detection reagents (WWE-Fc and PAR antibody) in a variety of assays. […]

Chain of PARylated PARP-1 (P09874 whole entry, the tested form may be a part): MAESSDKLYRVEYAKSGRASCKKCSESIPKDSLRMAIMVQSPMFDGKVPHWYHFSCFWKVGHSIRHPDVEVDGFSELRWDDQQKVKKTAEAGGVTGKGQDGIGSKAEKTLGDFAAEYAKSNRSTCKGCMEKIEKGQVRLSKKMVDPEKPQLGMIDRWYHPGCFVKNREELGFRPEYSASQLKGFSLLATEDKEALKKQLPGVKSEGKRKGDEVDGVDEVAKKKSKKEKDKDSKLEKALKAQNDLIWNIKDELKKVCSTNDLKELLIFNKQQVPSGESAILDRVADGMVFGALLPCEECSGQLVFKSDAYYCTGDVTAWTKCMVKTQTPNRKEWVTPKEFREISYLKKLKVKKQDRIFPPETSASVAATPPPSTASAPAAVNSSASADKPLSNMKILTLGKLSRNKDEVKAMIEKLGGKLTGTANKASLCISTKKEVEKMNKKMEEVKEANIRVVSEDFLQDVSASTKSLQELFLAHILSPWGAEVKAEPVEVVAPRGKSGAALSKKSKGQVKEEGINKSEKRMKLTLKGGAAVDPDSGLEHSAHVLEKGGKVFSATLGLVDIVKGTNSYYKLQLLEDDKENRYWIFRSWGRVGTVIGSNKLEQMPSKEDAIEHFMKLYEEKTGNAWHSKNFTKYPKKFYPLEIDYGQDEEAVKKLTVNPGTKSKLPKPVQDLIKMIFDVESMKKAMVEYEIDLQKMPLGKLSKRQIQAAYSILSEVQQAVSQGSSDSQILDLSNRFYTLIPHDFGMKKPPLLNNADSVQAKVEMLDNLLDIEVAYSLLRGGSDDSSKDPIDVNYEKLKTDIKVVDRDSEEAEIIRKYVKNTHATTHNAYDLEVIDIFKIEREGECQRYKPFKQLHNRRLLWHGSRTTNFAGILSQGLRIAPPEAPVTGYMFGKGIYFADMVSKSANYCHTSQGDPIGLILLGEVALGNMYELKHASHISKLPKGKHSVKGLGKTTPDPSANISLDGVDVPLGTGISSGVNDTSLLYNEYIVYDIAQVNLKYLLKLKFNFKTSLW

B1: PAR-T ddGFP: WWE domain from RNF146 fused to dimerization-dependent GFP monomers ddGFP-A and ddGFP-B (protein)
chain 1: MGHHHHHHHHHHSSGHIDDDDKHMLEGNGEYAWYYEGRNGWWQYDERTSRELEDAFSKGKKNTEMLIAGFLYVADLENMVQYRRNEHGRRRKIKRDIIDIPKKGVAGLRLEFSTGHGTGSTGSGSSGTASSESTGSSMASKSEEVIKEFMRFKVRLEGSMNGHEFEIEGEGEGRPYEGTQTAKLKVTKGGPLPFAWDILSPLIMYGSKMYVKHPADVPDYMKLSFPEGFKWERVMHFEDGGLVTATQDSSLQDGTLIYKVKMRGTNFPPDGPVMQKKTLGWDYATERLYPEEGVLKGELLGRLKLKDGGLNLVESKTIYMAKKPVQLPGYYFVDTKLDITSHNEDYTIVEQYERSEGRHHLGH
chain 2: MGHHHHHHHHHHSSGHIDDDDKHMLEGNGEYAWYYEGRNGWWQYDERTSRELEDAFSKGKKNTEMLIAGFLYVADLENMVQYRRNEHGRRRKIKRDIIDIPKKGVAGLRLEFSTGHGTGSTGSGSSGTASSESTGSSTIKEFMRFKVRMEGSMNGHEFEIEGEGEGRPYEGTQTAKLKVTKGGPLPFAWDILSPQIMYGSKAYVRHPADIPDYKKLPFPEGFKWERVMNFEDGGLVTVTQDSSLQDGTLICKVKIRGTNFPPDGPVMQKKTMGWEASTEMLYPKDGVLKGHSYQALKLKDGGHYLVEFETIYMAKKPVQLPGDYCVDTKLDITSHNEDYTIVEQYGRSEGRHRLGMDERYK
With B1 the “recognizing PARylated PARP-1 (fluorescence)” value (PARylated PARP-1; listed as WWE domain) was “worked better”, the “recognizing PARylated PARP-1 (fluorescence)” value (PARylated PARP-1; listed as WWE domain from RNF146) was “performed well” and the “detection of PARP-1 activation / PARylation in live cell imaging” value (PARP-1 activation) was “detected PARP-1 activation”.

B2: macrodomain from AF1521: macrodomain from AF1521 fused to ddGFP-A/B, recombinant ARBD-ddGFP pair (protein, listed as Archaeoglobus fulgidus)
chain: MERRTLIMEVLFEAKVGDITLKLAQGDITQYPAKAIVNAANKRLEHGGGVAYAIAKACAGDAGLYTEISKKAMREQFGRDYIDHGEVVVTPAMNLEERGIKYVFHTVGPICSGMWSEELKEKLYKAFLGPLEKAEEMGVESIAFPAVSAGIYGCDLEKVVETFLEAVKNFKGSAVKEVALVIYDRKSAEVALKVFERSL
B2 was tested, and the “recognizing PARylated PARP-1 (fluorescence)” value (PARylated PARP-1) was “performed well” and the “recognizing PARylated PARP-1 (fluorescence)” value (PARylated PARP-1; listed as macrodomain) was “worked better”.

B3: WWE-macrodomain combination sensor: ddGFP sensor pair combining WWE domain from RNF146 and macrodomain from AF1521 (protein)
chain 1: MGNGEYAWYYEGRNGWWQYDERTSRELEDAFSKGKKNTEMLIAGFLYVADLENMVQYRRNEHGRRRKIKRDIIDIPKKGVAGLR
chain 2: MERRTLIMEVLFEAKVGDITLKLAQGDITQYPAKAIVNAANKRLEHGGGVAYAIAKACAGDAGLYTEISKKAMREQFGRDYIDHGEVVVTPAMNLEERGIKYVFHTVGPICSGMWSEELKEKLYKAFLGPLEKAEEMGVESIAFPAVSAGIYGCDLEKVVETFLEAVKNFKGSAVKEVALVIYDRKSAEVALKVFERSL
modifications: left off: small tags and cut ends
notes: ddGFP sensor pair combining WWE domain from RNF146 and macrodomain from AF1521
With B3 the “recognizing PARylated PARP-1 (fluorescence)” value (PARylated PARP-1) was “able to detect PARylation in vitro” and the “detection of PARP-1 activation / PARylation in live cell imaging” value (PARP-1 activation) was “failed to recognize PARylation in cells”.
